In publication PMC9035715, “Regulatory subunit NEMO promotes polyubiquitin-dependent induction of NF-κB through a targetable second interaction with upstream activator IKK2” (The Journal of Biological Chemistry, 2022):

B1: GST-NEMO^241–390 (domain or fragment, human, UniProt Q9Y6K9 241-390, looked up)
chain: YDNHIKSSVVGSERKRGMQLEDLKQQLQQAEEALVAKQEVIDKLKEEAEQHKIVMETVPVLKAQADIYKADFQAERQAREKLAEKKELLQEQLEQLQREYSKLKASCQESARIEDMRKRHVEVSQAPLPPAPAYLSSPLALPSQRRSPPE
notes: source: E. coli Rosetta (DE3), purified (glutathione–agarose); not shown: GST, N-terminal, kept
B2: GST-NEMO^241–383 (domain or fragment, human, UniProt Q9Y6K9 241-383, looked up)
chain: YDNHIKSSVVGSERKRGMQLEDLKQQLQQAEEALVAKQEVIDKLKEEAEQHKIVMETVPVLKAQADIYKADFQAERQAREKLAEKKELLQEQLEQLQREYSKLKASCQESARIEDMRKRHVEVSQAPLPPAPAYLSSPLALPS
notes: as for B1
B3: GST-NEMO^241–375 (domain or fragment, human, UniProt Q9Y6K9 241-375, looked up)
chain: YDNHIKSSVVGSERKRGMQLEDLKQQLQQAEEALVAKQEVIDKLKEEAEQHKIVMETVPVLKAQADIYKADFQAERQAREKLAEKKELLQEQLEQLQREYSKLKASCQESARIEDMRKRHVEVSQAPLPPAPAYL
notes: as for B1
B4: GST-NEMO^241–350 (domain or fragment, human, UniProt Q9Y6K9 241-350, looked up)
chain: YDNHIKSSVVGSERKRGMQLEDLKQQLQQAEEALVAKQEVIDKLKEEAEQHKIVMETVPVLKAQADIYKADFQAERQAREKLAEKKELLQEQLEQLQREYSKLKASCQES
notes: as for B1
B5: GST-NEMO^241–419 (domain or fragment, human, UniProt Q9Y6K9 241-419, looked up)
chain: YDNHIKSSVVGSERKRGMQLEDLKQQLQQAEEALVAKQEVIDKLKEEAEQHKIVMETVPVLKAQADIYKADFQAERQAREKLAEKKELLQEQLEQLQREYSKLKASCQESARIEDMRKRHVEVSQAPLPPAPAYLSSPLALPSQRRSPPEEPPDFCCPKCQYQAPDMDTLQIHVMECIE
notes: also called CC2-ZF; source: E. coli Rosetta (DE3), purified (glutathione–agarose); not shown: GST, N-terminal, kept
B6: GST-NEMO^111–419 (domain or fragment, human, UniProt Q9Y6K9 111-419, looked up)
chain: KLDLKRQKEQALREVEHLKRCQQQMAEDKASVKAQVTSLLGELQESQSRLEAATKECQALEGRARAASEQARQLESEREALQQQHSVQVDQLRMQGQSVEAALRMERQAASEEKRKLAQLQVAYHQLFQEYDNHIKSSVVGSERKRGMQLEDLKQQLQQAEEALVAKQEVIDKLKEEAEQHKIVMETVPVLKAQADIYKADFQAERQAREKLAEKKELLQEQLEQLQREYSKLKASCQESARIEDMRKRHVEVSQAPLPPAPAYLSSPLALPSQRRSPPEEPPDFCCPKCQYQAPDMDTLQIHVMECIE
notes: also called truncated NEMO (lacking the KBD); source: E. coli Rosetta (DE3), purified (glutathione–agarose); not shown: GST, N-terminal, kept

Tests used:
Conditions in all cases: both partners purified
[1] = target: T1, linear tetra-ubiquitin (Ub4), M1-linked (UniProt P0CG48 1-76; P0CG48 1-76; P0CG48 1-76; P0CG48 1-76); experiment: SEC; Superose6 Increase 10/300 GL; 25 mM Tris–HCl pH 8.0, 250 mM NaCl, 2 mM DTT, 5% glycerol; 0.2 ml/min, 22 °C; peak fractions on Coomassie-stained SDS-PAGE
T1 construct: ubiquitin, copy 1 of four moieties covalently linked N-terminal to C-terminal on one chain (M1 linked); ubiquitin, copy 2 of four; ubiquitin, copy 3 of four; ubiquitin, copy 4 of four; also called linear poly-Ub; methionine-linked Ub4 chain; source: recombinant (pET24d construct), purified; not shown: His6, N-terminal, kept

[2] = target: T1, linear tetra-ubiquitin (Ub4), M1-linked; experiment: pull-down; Ub4 recovered with GST-NEMO^241–419 from mixtures with HA-IKK2 HEK293T lysate, with or without TAT peptides (200–25 μM), 2 h at 4 °C; Western blot
[3] = target: T1, linear tetra-ubiquitin (Ub4), M1-linked; experiment: pull-down; purified GST-NEMO fusions mixed with purified IKK proteins in the presence of Ub4, 1 h at 4 °C, then glutathione–agarose beads 2 h at 4 °C; 25 mM Tris–HCl pH 7.5, 150 mM NaCl, 1 mM EDTA, 0.5% NP-40, 0.55% Triton X-100, 5% glycerol, 1 mM DTT; four washes; Western blot

T1 sequence (P0CG48 1-304, one chain of several): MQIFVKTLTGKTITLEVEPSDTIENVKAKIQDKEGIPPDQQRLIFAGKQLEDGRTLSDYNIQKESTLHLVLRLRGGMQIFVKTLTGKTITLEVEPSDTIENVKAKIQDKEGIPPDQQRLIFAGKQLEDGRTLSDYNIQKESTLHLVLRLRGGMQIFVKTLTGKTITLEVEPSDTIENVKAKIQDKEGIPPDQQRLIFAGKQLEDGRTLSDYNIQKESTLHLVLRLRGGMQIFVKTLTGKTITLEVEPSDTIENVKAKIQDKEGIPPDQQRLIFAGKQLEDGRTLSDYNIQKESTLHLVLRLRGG

Row | binding result [1] | other results | Binder
1 | binds |  | B1
2 | binds |  | B2
3 | binds |  | B3
4 | binds |  | B4
5 |  | binding result [2]: binds | B5
6 |  | binding result [3]: binds | B6
